Experimental data: patent US11583588B2, “Modular self assembly disassembly (SADA) technologies” (MEMORIAL SLOAN KETTERING CANCER CENTER, priority 2017, dated 2023)

B1: P63-Cytokine: IL15Rα, huP63-tet, IgG3 spacer; associates non-covalently with soluble IL15; SEQ ID NO: 59 (protein)
chain: ITCPPPMSVEHADIWVKSYSLYSRERYICNSGFKRKAGTSSLTECVLNKATNVAHWTTPSLKCIRTPLGDTTHTSGRSPDDELLYLPVRGRETYEMLLKIKESLELMQYLPQHTIETYRQQQQQQHQHLLQKQGGSGGAPHHHHHH
B2: P73-Cytokine: IL15Rα, huP73-tet, IgG3 spacer; associates non-covalently with soluble IL15; SEQ ID NO: 61 (protein)
chain: ITCPPPMSVEHADIWVKSYSLYSRERYICNSGFKRKAGTSSLTECVLNKATNVAHWTTPSLKCIRTPLGDTTHTSGRHGDEDTYYLQVRGRENFEILMKLKESLELMELVPQPLVDSYRQQQQLLQRPGGSGGAPHHHHHH
B3: P53-BiDE(noHIS): hu3F8-scFv, huC825-scFv, huP53-tet, GS linker, IgG3 spacer, lacks terminal HIS tag; SEQ ID NO: 17 (protein)
chain: EIVMTQTPATLSVSAGERVTITCKASQSVSNDVTWYQQKPGQAPRLLIYSASNRYSGVPARFSGSGYGTEFTFTISSVQSEDFAVYFCQQDYSSFGCGTKLEIKRGGGGSGGGGSGGGGSQVQLVESGPGVVQPGRSLRISCAVSGFSVTNYGVHWVRQPPGKCLEWLGVIWAGGITNYNSAFMSRLTISKDNSKNTVYLQMNSLRAEDTAMYYCASRGGHYGYALDYWGQGTLVTVSSGGGGSGGGGSGGGGSGGGGSHVQLVESGGGLVQPGGSLRLSCAASGFSLTDYGVHWVRQAPGKGLEWLGVIWSGGGTAYNTALISRFTISRDNSKNTLYLQMNSLRAEDTAVYYCARRGSYPYNYFDAWGCGTLVTVSSGGGGSGGGGSGGGGSQAVVTQEPSLTVSPGGTVTLTCGSSTGAVTASNYANWVQQKPGQCPRGLIGGHNNRPPGVPARFSGSLLGGKAALTLLGAQPEDEAEYYCALWYSDHWVIGGGTKLTVLGTPLGDTTHTSGKPLDGEYFTLQIRGRERFEMFRELNEALELKDAQAGKEPGGSGGA
B4: P53-Cytokine: IL15Rα, huP53-tet, IgG3 spacer; associates non-covalently with soluble IL15; SEQ ID NO: 57 (protein)
chain: ITCPPPMSVEHADIWVKSYSLYSRERYICNSGFKRKAGTSSLTECVLNKATNVAHWTTPSLKCIRTPLGDTTHTSGKPLDGEYFTLQIRGRERFEMFRELNEALELKDAQAGKEPGGSGGAPHHHHHH

Experiments:
[1] = test system: TIB214, an IL15 sensitive cell line; assay: SADA-Cytokine dependent proliferation; assay type: cell-based
Excerpt: (§1) […] to FIG. 11D depict in vitro activity of P53-Cytokine, P63-Cytokine and P73-Cytokine SADA-Cytokines. FIG. 11A depicts a graph showing SADA-Cytokine dependent proliferation. The dose dependent proliferative response of TIB214 cells to each of P53-Cytokine (circles), P63-Cytokine (squares) and P73-Cytokine (triangles) is shown. FIG. 11B depicts a graph showing NK Cell cytotoxicity improvement from SADA-Cytokine stimulation. Bar graph summarizes peak cytotoxicity improvement from exposure of human NK cells to each SADA-Cytokine for 3 days. Cytotoxicity was assessed over a 4 hr period using a GD2(+) cell line that is sensitive to NK mediated killing and an anti-GD2 IgG (Ahmed, M. et al. (2015) OncoImmunology). Control (black bar), P53-Cytokine (medium gray bar), P63-Cytokine (dark gray bar) and P73-Cytokine (light gray bar). FIG. 11C depicts a graph showing T Cell cytotoxicity improvement from SADA-Cytokine stimulation. Bar graph summarizes peak cytotoxicity improvement from exposure of human T cells to each SADA-Cytokine for 3 days. Cytotoxicity was assessed over a 4 hr period using a GD2(+) cell line and a T-cell engaging anti-GD2 IgG-scFv bispecific (Xu, H. et al. (2015) Cancer immunology research). Control (black bar), P53-Cytokine (medium gray bar), P63-Cytokine (dark gray bar) and P73-Cytokine (light gray bar). FIG. 11D depicts a graph showing tumor growth in DKO mice with GD2(+) tumors implanted subcutaneously. Each mouse was treated with PBMCs (gray triangles) and a low dose of an anti-tumor IgG-scFv (Xu, H. et al. (2015) Cancer immunology research) and additional cytokines. Untreated tumors grew out very quickly (black lines). Tumors treated with the IgG-scFv and an Fc-Cytokine (Liu et al. 2016 JBC, http://www.jbc.org/content/291/46/23869) with a mutation to improve binding (light gray line) shrunk tumors slower than mice treated with the IgG-scFv and SADA-Cytokine (dark gray line).
(§2) This example documents the in vitro activity of exemplary SADA-cytokine multimers. […] Additionally, each complex could prime effector immune cells to kill more strongly. […]

[2] = test system: Human NK cells; assay: NK cell cytotoxicity improvement from SADA-Cytokine stimulation; assay type: cell-based; details: 1 nM for three days; cytotoxicity over a 4 hr period
Excerpt: as §1, §2

[3] = test system: human T cells; assay: T cell cytotoxicity improvement from SADA-Cytokine stimulation; assay type: cell-based; details: incubated three days; cytotoxicity over a 4 hr period, GD2(+) cell line
Excerpt: as §1, §2

[4] = Blood and tumor activity after P53-BiDE(noHIS) and 177Lu-Bn-DOTA administration (FIG. 6A, 6D, 6E); assay type: in vivo, mice; details: mouse, in vivo
Experimental: FIG. 6A to FIG. 6E depict pharmacokinetics of exemplary SADA-BiDE constructs in vivo. FIG. 6A depicts activity over time after P53-BiDE(noHIS) and Bn-DOTA administration. Each line represents one group, with three mice per group. Triangles denote a group that received P53-BiDE(noHIS) followed by clearing agent (CA) 72 hours later. Squares denote a group that received P53-BiDE(noHIS) without any clearing agent before ^177Lu-Bn-DOTA administration. Circles denote a group that only received ^177Lu-Bn-DOTA but not any SADA-BiDE. Dashed lines correspond to the measured blood activity, while solid lines correspond to the activity measured in the tumor. […] FIG. 6B depicts blood activity of radiolabeled 131I-SADA-BiDE in tumor-free mice. Activity measurements were normalized to the initial measurement for each group. Each line represents one group, with 4-5 mice per group. (+) symbols denote P53-BiDE, (X) symbols denote P63-BiDE and circles denote P73-BiDE. FIG. 6C depicts blood activity in tumor bearing mice treated with either IgG-BiDE (Cheal, S. M. et al. (2014) Mol Cancer Ther) or SADA-BiDE and then injected with ^177Lu-Bn-DOTA. Each line represents one group, with 3-5 mice per group. Circles denote a group that received IgG-BiDE (Cheal, S. M. et al. (2014) Mol Cancer Ther) followed by clearing agent 48 hrs later. Squares denote a group that received P53-BiDE. Diamonds denote a group that received P63-BiDE. Hexagons denote a group that received P73-BiDE. No SADA-BiDE treated mice received any clearing agent. A representative anti-tumor IgG and ^177Lu-Bn-DOTA alone clearance curves were added as a reference. (+) symbols with a dotted line denote the ^124I-labeled anti-GD2 IgG, and (x) symbols with a dotted line denote ^177Lu-Bn-DOTA alone. […]
Importantly, even though, as described in the previous examples, P53-BIDE(NOHIS), P53-BiDE, P63-BiDE and P73-BiDE is rapidly cleared from the serum, total tumor uptake of was not affected. With both 24 hours and 72 hours between P53-BIDE(NOHIS) and ^177Lu-Bn-DOTA injections, significant activity (˜15% ID/g) was measured at the tumor site (FIG. 6D) […]

[5] = test system: tumors; assay type: in vivo, mice
Experimental: FIG. 8A and FIG. 8B depict tumor responses after treatment with a SADA-BiDE construct P53-BIDE(NOHIS) in vivo. FIG. 8A depicts a graph showing the change in tumor volume after administration of 1 (circles) or 4 (squares) doses of P53-BiDE. As a reference other mice were also treated with IgG-BiDE (Cheal, S. M. et al. (2014) Mol Cancer Ther) and clearing agent (triangles). FIG. 8B provides images of an exemplary mouse treated with a single dose of P53-BIDE(NOHIS) from the experimental data shown in FIG. 8A. Images are shown of the mouse on days 1, 8 and 15 with a box around the site of the tumor.
In mice with significant tumor burden (>500 mm^3 tumor volumes) a single 250 μg (1.25 nmol) dose of P53-BIDE(NOHIS) was administered followed 24 hour later by administration of 2mCi of ^177Lu-Bn-DOTA.

Molecule	proliferation of TIB214 relative to untreated control cells [1]	NK cell cytotoxic response against a GD2(+) neuroblastoma cell line [2]	IgG-scFv dependent killing of tumor cells by T cells [3]	activity measured at the tumor site [4]	clearance from blood without clearing agent [4]	retention at the target site [4]	clinical or histologic toxicity ([5]; mouse, in vivo)	tumor response ([5]; tumor volumes >500 mm^3, single 250 μg (1.25 nmol) dose, 2mCi 177Lu-Bn-DOTA 24 hour later, no CA)
B1	robust proliferation	increased antibody-independent cytotoxic response	strongly increased IgG-scFv dependent killing					
B2	robust proliferation	increased antibody-independent cytotoxic response	strongly increased IgG-scFv dependent killing					
B3				~15 % ID/g	almost completely cleared	stably retained at the target site	did not induce any clinical or histologic toxicity	completely ablate tumors in all four mice treated
B4	robust proliferation	increased antibody-independent cytotoxic response	strongly increased IgG-scFv dependent killing					
